Each block holds one molecule with its values, some of them ahead of it.
How the values were obtained:
[1] = test system: PC3 (Human Prostate Cancer Cell Line) tumors; test: PC3 mouse tumor model; format: in vivo, NCr nude mice; conditions: PC3, 10 mg/kg intraperitoneal twice per week
Experimental: Briefly, 5×10^6 PC3 cells in 100 μl of growth factor-reduced Matrigel (BD Biosciences) were injected subcutaneously into the flanks of 6-8 week old male NCr nude mice (Taconic, Hudson, N.Y.). After tumor volumes reached an average of about 200 mm^3, mice were randomized into groups for treatment. […] Tumor volumes were measured twice per week over the course of the experiment and tumor weights were measured upon excision of tumors at the conclusion of the experiment. Averages (mean+/−standard deviation) of tumor weight and growth were calculated for each treatment group. Percent decrease of tumor weight and growth were calculated from comparison to Fc protein measurements.

[2] = test system: retinal superficial vasculature; test: Retinal vascularization in wild-type mice; format: in vivo; conditions: 12.5 mg/kg subcutaneous at P2, retina at P5
Experimental: (§1) In one set of experiments wild-type mice were used. In another set, mice expressing a human Ang-2 in place of the wild-type mouse Ang-2 (designated “hu-Ang-2 mice”) were used. The mice at two days of age (P2) were injected subcutaneously with either control Fc or with selected anti-Ang-2 antibodies at a dose of 12.5 mg/kg. Three days later (at P5), pups were euthanized, and eyeballs were enucleated and fixed in 4% PFA for 30 minutes. Retinas were dissected, stained with Griffonia simplicifolia lectin-1 for 3 hours or overnight at 4° C. to visualize the vasculature, and flat-mounted on microscope slides. Images were taken using a Nikon Eclipse 80i microscope camera and analyzed using Adobe Photoshop CS3, Fovea 4.0, and Scion 1.63 software.
(§2) Areas of the retina covered with superficial vasculature were measured and used as a readout of antibody activity. The reduction in the size of the vascular areas in mice treated with antibody compared to Fc-treated controls is presented in Table 34. The percent reduction in vascular area reflects the anti-angiogenic potency of the antibody. (N/D=not determined)

[3] = test system: retinal superficial vasculature; test: Retinal vascularization in hu-Ang-2 mice; format: in vivo; conditions: 12.5 mg/kg subcutaneous at P2, retina at P5
Experimental: as §1, §2

[4] = test system: Tie-2 phosphorylation (Ang-2-mediated) in HUVECs; test: Inhibition of Ang-2-mediated Tie-2 phosphorylation in FOXO1-adenovirus infected HUVECs; format: cell-based, human; conditions: antibody 0.5 μg/ml
Experimental: Further, the inventors have shown that infection of HUVECs with an adenovirus encoding FOXO1 results in expression and secretion of Ang-2, followed by activation of Tie-2 phosphorylation (Daly et al. 2006 PNAS 103:15491).
Anti-Ang-2 antibodies were tested for their ability to inhibit Tie-2 phosphorylation. Briefly, 7×10^5 HUVECs (Vec Technologies, Rensselaer, N.Y.) were plated in 6 cm cell culture dishes in 3.5 ml of MCDB131 Complete medium (Vec Technologies, Rensselaer, N.Y.). The following day, the cells were washed with Opti-MEM (Invitrogen Corp., Carlsbad, Calif.) and fed with 2 ml of Opti-MEM. […] Cells were then washed with MCDB131 and fed with 2 ml of MCDB131 containing anti-Ang-2 antibodies at a concentration of 0.5 μg/ml. At twenty hours post infection, cells were lysed and subjected to Tie-2 immunoprecipitation as described by Daly et al., Proc. Natl. Acad. Sci. USA 103:15491-15496 (2006). Immunoglobulin was collected on protein A/G beads (Santa Cruz Biotechnology, Santa Cruz, Calif.) for one hour. Beads were washed with cold lysis buffer and resuspended in SDS sample buffer for analysis by western blot with antibodies specific for phosphotyrosine (Millipore, Billerica, Mass.) or Tie-2. Signals were detected using HRP-conjugated secondary antibodies and ECL reagents (GE Healthcare, Piscataway, N.J.). X-Ray films were scanned and the phospho-Tie-2 and Tie-2 signals were quantified using ImageJ software. The phospho-Tie-2/Tie-2 ratios were used to determine the % inhibition for each anti-Ang-2 antibody (i.e. Percent inhibition=Reduction in phospho-Tie-2/Tie-2 as compared to control).

[5] = target: T1, hAng-1-WT binding to hTie-2-mFc (Homo sapiens, UniProt Q15389); test: Biosensor SPR blocking of hAng-1-WT binding to hTie-2-mFc-ecto surface; format: biochemical; conditions: 10 nM hAng-1-WT
T1 sequence (Q15389 20-498 limits assumed): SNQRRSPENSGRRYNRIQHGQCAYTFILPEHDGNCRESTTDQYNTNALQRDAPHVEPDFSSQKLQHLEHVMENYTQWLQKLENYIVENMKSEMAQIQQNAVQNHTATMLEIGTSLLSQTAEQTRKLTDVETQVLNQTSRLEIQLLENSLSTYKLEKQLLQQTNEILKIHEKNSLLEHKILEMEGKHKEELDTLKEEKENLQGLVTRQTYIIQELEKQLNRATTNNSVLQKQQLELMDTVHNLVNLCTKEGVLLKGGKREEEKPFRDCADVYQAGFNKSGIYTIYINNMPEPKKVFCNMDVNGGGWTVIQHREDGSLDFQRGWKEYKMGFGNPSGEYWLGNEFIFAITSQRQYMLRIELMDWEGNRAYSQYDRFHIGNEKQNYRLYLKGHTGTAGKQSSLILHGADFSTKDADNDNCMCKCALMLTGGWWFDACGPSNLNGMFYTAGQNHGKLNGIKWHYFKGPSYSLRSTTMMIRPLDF
Experimental: In an effort to further assess the ability of selected anti-hAng-2 antibodies to block the binding of Ang-1 to Tie-2, a biosensor surface plasmon resonance experiment was conducted. In this experiment, a human Tie-2 full-length extracellular domain construct (hTie-2-mFc-ecto) was amine-coupled on a BIACORE™ chip to create a receptor coated surface. Selected anti-hAng-2 antibodies and control constructs, at 1 μM (100-fold excess over antigen), were premixed with 10 nM of hAng-1-WT, followed by 60 minutes incubation at 25° C. to allow antibody-antigen binding to reach equilibrium to form equilibrated solutions. The equilibrated solutions were injected over the receptor surfaces at 5 μL/min for 5 minutes at 25° C. Changes in resonance units (RU) due to the binding of the hAng-1-WT to hTie-2-mFc were determined. An irrelevant peptibody construct with no binding to hAng-1 was included in this experiment to establish the 0% blocking baseline, and a human Tie-2-mFc construct was used as a positive control for blocking. The amount of Ang-1 bound to Tie-2 following antibody preincubation, expressed as a percentage of the amount of Ang-1 bound to Tie-2 following negative control preincubation, is shown in Table 20. (A greater amount of Ang-1 binding to Tie-2 signifies a lower degree of antibody blocking).
(§3) The foregoing experiment was repeated using different amounts of Ang-2 blockers and controls. In particular, a human Tie-2 full-length extracellular domain construct (hTie-2-mFc-ecto) was amine-coupled on a BIACORE™ chip to create a receptor-coated surface. Selected anti-hAng-2 antibodies and control constructs (50 or 150 nM) were mixed with hAng-2-WT (25 nM) followed by 60 minutes incubation at 25° C. to allow antibody-antigen binding to reach equilibrium. The equilibrated solutions were injected over the receptor surfaces at 10 μL/min for 5 minutes at 25° C. To evaluate the ability of the selected anti-hAng-2 antibodies to block Ang-1-WT binding to hTie-2, a similar procedure was followed except the antibodies were tested at three concentrations (50, 100 or 1000 nM) and incubated with 10 nM of hAng-1-WT. Changes in resonance units (RU) due to the binding of the Ang-2-WT or hAng-1-WT to hTie-2-mFc were determined. An irrelevant antibody with no binding to either angiopoietin was included in these experiments to establish the 0% blocking baseline, and a human Tie-2-mFc construct was used as a positive control for blocking. Results are summarized in Tables 21 (hAng-1 applied to a hTie-2 surface) and 22 (hAng-2 applied to a hTie-2 surface).

[6] = target: T2, hAng-2-WT binding to hTie-2-mFc (Homo sapiens, UniProt O15123); test: Biosensor SPR blocking of hAng-2-WT binding to hTie-2-mFc-ecto surface; format: biochemical; conditions: 25 nM hAng-2-WT
T2 sequence (O15123 19-496): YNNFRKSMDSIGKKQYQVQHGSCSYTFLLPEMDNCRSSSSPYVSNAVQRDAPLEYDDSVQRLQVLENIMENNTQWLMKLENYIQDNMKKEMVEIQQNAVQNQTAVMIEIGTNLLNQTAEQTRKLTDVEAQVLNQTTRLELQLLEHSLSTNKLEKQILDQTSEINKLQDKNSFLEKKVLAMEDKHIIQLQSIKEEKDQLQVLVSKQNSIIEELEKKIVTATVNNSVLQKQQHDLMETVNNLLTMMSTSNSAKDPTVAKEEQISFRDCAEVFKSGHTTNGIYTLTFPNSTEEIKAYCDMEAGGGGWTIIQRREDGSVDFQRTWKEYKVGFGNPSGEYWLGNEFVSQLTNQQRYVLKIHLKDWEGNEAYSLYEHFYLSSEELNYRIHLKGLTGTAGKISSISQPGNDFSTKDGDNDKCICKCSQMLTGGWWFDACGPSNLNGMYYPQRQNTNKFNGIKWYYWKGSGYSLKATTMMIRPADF
Experimental: as §3

B1: H1H724N: anti-Ang-2 antibody (724N) cloned onto human IgG1 (antibody, V domains shown)
VH: QVQLVESGGGVVQPGRSLRLSCAASGFTLSNYGMHWVRQAPGKGLEWVAVIWHDGSNTYYADSVKGRFTISRDNSKNTLYLQMNSLRAEDTAVYYCTREGLDFWSGYYPNWFDPWGQGTLVTVSS
VL: DIQMTQSPSSLSASVGDRVTITCRASQGIRNDLGWYQQKPGKAPKRLIYAASNLQGGVPSRFSGSGSGTEFTLTISSLQPEDFAAYYCLQHNIYPLTFGGGTKVEIK
Avg Tumor Weight ([1]; approximately three weeks, mean ± SD): 0.55 ± 0.07 g
Avg Tumor Growth ([1]; mean ± SD): 392 ± 169 mm^3
% Decrease in Tumor Growth ([1]; vs Fc protein): 23%
% Decrease in Tumor Weight ([1]; vs Fc protein): 17%
% Reduction in Vascular Area Relative to Fc Control, Wild-Type Mice [2]: 32.2%
% Reduction in Vascular Area Relative to Fc Control, hAng-2 Mice [3]: 33.2%

B2: H1H690P: anti-Ang-2 antibody, HCVR/LCVR SEQ ID NOs 42/44 (antibody, V domains shown)
VH: EVQLVESGGGLVQPGESLRLSCAASGFTFSSYAMSWVRQGPGKGLEWVSSITGSGDTTYYADSVKGRFTISRDNSKNTLYLHMNSLRAEDTAVYYCAKDFLDYSTYLAFDLWGQGTMVTVSS
VL: EIVLTQSPATLSLSPGERATLSCRASQSVSSYLTWYQQKPGQAPRLLSYDASNRATGIPARFSGSGSGTDFTLTISSLEPEDFAVYYCQQRSNWPLTFGGGTKVEIK
% Reduction in Vascular Area Relative to Fc Control, Wild-Type Mice [2]: 30.7%
% Reduction in Vascular Area Relative to Fc Control, hAng-2 Mice [3]: 41.5%
Inhibition of Tie-2 phosphorylation [4]: +++ (75-100%)
Inhibition of Tie-2 phosphorylation (in words) [4]: Especially robust inhibition

Percent of Neg. Ctrl Binding (hAng-1 WT) ([5]; 50 nM antibody or control): 22%
Specific Bound RU (hAng-1 WT) ([5]; 50 nM antibody or control): 70 RU
Percent of Neg. Ctrl Binding (hAng-1 WT) ([5]; 100 nM antibody or control): 13%
Specific Bound RU (hAng-1 WT) ([5]; 100 nM antibody or control): 39 RU
Percent of Neg. Ctrl Binding (hAng-1 WT) ([5]; 1000 nM antibody or control): 0%
Specific Bound RU (hAng-1 WT) ([5]; 1000 nM antibody or control): −47 RU
Percent of Neg. Ctrl Binding (hAng-2 WT) ([6]; 50 nM antibody or control): 35%
Specific Bound RU (hAng-2 WT) ([6]; 50 nM antibody or control): 97 RU
Percent of Neg. Ctrl Binding (hAng-2 WT) ([6]; 150 nM antibody or control): 30%
Specific Bound RU (hAng-2 WT) ([6]; 150 nM antibody or control): 82 RU
B3: hTie-2-mFc: chimeric construct consisting of human Tie-2 conjugated to mouse IgG; positive control for blocking (protein)
chain: MDSLASLVLCGVSLLLSGTVEGAMDLILINSLPLVSDAETSLTCIASGWRPHEPITIGRDFEALMNQHQDPLEVTQDVTREWAKKVVWKREKASKINGAYFCEGRVRGEAIRIRTMKMRQQASFLPATLTMTVDKGDNVNISFKKVLIKEEDAVIYKNGSFIHSVPRHEVPDILEVHLPHAQPQDAGVYSARYIGGNLFTSAFTRLIVRRCEAQKWGPECNHLCTACMNNGVCHEDTGECICPPGFMGRTCEKACELHTFGRTCKERCSGQEGCKSYVFCLPDPYGCSCATGWKGLQCNEACHPGFYGPDCKLRCSCNNGEMCDRFQGCLCSPGWQGLQCEREGIPRMTPKIVDLPDHIEVNSGKFNPICKASGWPLPTNEEMTLVKPDGTVLHPKDFNHTDHFSVAIFTIHRILPPDSGVWVCSVNTVAGMVEKPFNISVKVLPKPLNAPNVIDTGHNFAVINISSEPYFGDGPIKSKKLLYKPVNHYEAWQHIQVTNEIVTLNYLEPRTEYELCVQLVRRGEGGEGHPGPVRRFTTASIGLPPPRGLNLLPKSQTTLNLTWQPIFPSSEDDFYVEVERRSVQKSDQQNIKVPGNLTSVLLNNLHPREQYVVRARVNTKAQGEWSEDLTAWTLSDILPPQPENIKISNITHSSAVISWTILDGYSISSITIRYKVQGKNEDQHVDVKIKNATIIQYQLKGLEPETAYQVDIFAENNIGSSNPAFSHELVTLPESQAPADLGGGKGPGEPRGPTIKPCPPCKCPAPNLLGGPSVFIFPPKIKDVLMISLSPIVTCVVVDVSEDDPDVQISWFVNNVEVHTAQTQTHREDYNSTLRVVSALPIQHQDWMSGKEFKCKVNNKDLPAPIERTISKPKGSVRAPQVYVLPPPEEEMTKKQVTLTCMVTDFMPEDIYVEWTNNGKTELNYKNTEPVLDSDGSYFMYSKLRVEKKNWVERNSYSCSVVHEGLHNHHTTKSFSRTPGK
